Measurements published in US20030212001A1 (THERATECHNOLOGIES, published 2003).

Biological target: R-14 protein (as present in the eye of newborn pigs)
Experiment: cell-based or functional assay

Binder	IC50, dose response on basal intraocular pressure (IOP) of piglet [nM]
IFDSTECW [peptide 1405]	342
HIICSPLR [peptide 1402]	86.4
